IntAct's records for PubMed 35512704

B1: Mothers against decapentaplegic homolog 4 (Homo sapiens), Q13485 (parent)
chain: MDNMSITNTPTSNDACLSIVHSLMCHRQGGESETFAKRAIESLVKKLKEKKDELDSLITAITTNGAHPSKCVTIQRTLDGRLQVAGRKGFPHVIYARLWRWPDLHKNELKHVKYCQYAFDLKCDSVCVNPYHYERVVSPGIDLSGLTLQSNAPSSMMVKDEYVHDFEGQPSLSTEGHSIQTIQHPPSNRASTETYSTPALLAPSESNATSTANFPNIPVASTSQPASILGGSHSEGLLQIASGPQPGQQQNGFTGQPATYHHNSTTTWTGSRTAPYTPNLPHHQNGHLQHHPPMPPHPGHYWPVHNELAFQPPISNHPAPEYWCSIAYFEMDVQVGETFKVPSSCPIVTVDGYVDPSGGDRFCLGQLSNVHRTEAIERARLHIGKGVQLECKGEGDVWVRCLSDHAVFVQSYYLDREAGRAPGDAVHKIYPSAYIKVFDLRQCHRQMQQQAATAQAAAAAQAAAVAGNIPGPGSVGGIAPAISLSAAAGIGVDDLRRLCILRMSFVKGWGPDYPRQSIKETPCWIEIHLHRALQLLDEVLHTMPIADPQPLD
partner: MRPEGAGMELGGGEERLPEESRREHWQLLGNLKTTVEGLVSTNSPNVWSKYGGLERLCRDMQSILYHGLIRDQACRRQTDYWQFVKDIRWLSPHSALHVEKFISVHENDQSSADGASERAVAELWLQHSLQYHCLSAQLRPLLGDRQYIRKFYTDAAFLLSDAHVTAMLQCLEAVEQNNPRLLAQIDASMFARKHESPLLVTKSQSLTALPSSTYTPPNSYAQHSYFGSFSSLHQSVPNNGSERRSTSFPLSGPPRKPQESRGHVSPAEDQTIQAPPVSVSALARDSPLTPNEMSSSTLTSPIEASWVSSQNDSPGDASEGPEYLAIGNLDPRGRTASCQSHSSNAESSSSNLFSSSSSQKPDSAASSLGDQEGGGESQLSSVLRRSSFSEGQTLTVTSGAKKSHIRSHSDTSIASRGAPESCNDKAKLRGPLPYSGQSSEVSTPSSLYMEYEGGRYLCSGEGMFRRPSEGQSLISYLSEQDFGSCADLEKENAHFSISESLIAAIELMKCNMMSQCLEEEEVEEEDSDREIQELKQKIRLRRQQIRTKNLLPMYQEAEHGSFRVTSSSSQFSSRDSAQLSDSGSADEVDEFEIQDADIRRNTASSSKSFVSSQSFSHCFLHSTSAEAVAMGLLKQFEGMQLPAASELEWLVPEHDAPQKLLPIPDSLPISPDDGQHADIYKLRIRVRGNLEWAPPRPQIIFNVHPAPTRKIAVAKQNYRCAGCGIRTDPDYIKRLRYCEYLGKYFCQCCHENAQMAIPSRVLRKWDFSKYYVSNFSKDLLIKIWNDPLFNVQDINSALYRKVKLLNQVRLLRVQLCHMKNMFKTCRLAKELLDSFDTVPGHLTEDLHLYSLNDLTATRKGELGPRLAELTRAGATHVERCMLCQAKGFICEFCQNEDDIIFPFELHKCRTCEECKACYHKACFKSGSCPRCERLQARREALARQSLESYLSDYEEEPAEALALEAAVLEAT
B2: Mothers against decapentaplegic homolog 4 (Homo sapiens), Q13485 (parent)
chain: B1 chain
partner: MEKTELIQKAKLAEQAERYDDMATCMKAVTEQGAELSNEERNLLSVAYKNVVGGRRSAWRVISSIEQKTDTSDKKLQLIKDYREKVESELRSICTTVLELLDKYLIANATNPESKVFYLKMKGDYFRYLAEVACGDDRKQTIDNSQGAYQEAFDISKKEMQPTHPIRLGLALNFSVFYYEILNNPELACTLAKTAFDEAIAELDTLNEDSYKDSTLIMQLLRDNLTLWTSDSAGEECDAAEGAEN
B3: Mothers against decapentaplegic homolog 4 (Homo sapiens), Q13485 (parent)
chain: B1 chain
partner: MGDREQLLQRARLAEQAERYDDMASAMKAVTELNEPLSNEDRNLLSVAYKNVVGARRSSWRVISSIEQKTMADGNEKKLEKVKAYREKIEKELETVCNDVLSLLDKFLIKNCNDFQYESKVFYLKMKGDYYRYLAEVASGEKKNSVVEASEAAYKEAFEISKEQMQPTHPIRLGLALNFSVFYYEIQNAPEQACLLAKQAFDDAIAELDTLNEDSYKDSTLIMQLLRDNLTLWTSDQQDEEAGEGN
B4: Mothers against decapentaplegic homolog 4 (Homo sapiens), Q13485 (parent)
chain: B1 chain
partner: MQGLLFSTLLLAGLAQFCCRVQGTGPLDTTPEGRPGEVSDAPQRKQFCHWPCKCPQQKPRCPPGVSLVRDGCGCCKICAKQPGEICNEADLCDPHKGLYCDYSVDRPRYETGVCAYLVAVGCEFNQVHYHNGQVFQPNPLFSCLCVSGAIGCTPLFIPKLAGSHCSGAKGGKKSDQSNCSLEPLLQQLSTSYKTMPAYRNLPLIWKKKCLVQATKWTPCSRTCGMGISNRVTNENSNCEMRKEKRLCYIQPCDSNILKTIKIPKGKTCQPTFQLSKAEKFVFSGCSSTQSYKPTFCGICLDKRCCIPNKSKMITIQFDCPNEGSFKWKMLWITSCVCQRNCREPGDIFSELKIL
B5: Mothers against decapentaplegic homolog 4 (Homo sapiens), Q13485 (parent)
chain: B1 chain
partner: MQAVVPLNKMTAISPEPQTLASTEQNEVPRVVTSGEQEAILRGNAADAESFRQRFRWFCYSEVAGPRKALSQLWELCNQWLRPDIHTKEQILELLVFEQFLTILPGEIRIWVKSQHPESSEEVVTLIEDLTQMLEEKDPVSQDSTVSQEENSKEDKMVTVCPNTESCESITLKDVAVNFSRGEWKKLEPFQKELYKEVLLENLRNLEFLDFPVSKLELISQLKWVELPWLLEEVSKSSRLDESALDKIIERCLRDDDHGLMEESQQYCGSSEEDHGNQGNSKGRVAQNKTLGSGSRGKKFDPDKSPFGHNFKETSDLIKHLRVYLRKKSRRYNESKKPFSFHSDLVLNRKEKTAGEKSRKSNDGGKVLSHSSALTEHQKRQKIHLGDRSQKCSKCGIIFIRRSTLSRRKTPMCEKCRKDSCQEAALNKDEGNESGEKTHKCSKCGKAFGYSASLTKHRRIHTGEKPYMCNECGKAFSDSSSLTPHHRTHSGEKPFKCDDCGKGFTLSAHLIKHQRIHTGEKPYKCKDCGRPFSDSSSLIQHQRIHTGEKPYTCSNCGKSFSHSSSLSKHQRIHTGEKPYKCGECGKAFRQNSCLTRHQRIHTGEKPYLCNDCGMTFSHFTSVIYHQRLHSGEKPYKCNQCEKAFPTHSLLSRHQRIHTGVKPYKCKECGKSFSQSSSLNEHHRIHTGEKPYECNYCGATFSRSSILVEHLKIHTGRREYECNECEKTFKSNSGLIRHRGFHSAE
B6: Mothers against decapentaplegic homolog 4 (Homo sapiens), Q13485 (parent)
chain: B1 chain
partner: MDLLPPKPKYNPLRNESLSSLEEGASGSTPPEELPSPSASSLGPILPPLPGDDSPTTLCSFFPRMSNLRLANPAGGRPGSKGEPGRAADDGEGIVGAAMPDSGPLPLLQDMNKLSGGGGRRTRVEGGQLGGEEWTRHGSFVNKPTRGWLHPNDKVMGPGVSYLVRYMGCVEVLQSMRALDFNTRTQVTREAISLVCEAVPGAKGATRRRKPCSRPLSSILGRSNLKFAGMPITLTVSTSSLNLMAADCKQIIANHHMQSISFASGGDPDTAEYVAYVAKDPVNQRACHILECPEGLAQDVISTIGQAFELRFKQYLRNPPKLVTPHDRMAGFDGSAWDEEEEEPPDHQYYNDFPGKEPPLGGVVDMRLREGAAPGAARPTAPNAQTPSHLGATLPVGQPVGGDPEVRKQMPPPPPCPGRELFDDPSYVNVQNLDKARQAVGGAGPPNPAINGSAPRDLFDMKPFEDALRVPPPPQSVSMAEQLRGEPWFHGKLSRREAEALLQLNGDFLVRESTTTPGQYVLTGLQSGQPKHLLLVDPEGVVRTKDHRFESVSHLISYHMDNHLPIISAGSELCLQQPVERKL
B7: Mothers against decapentaplegic homolog 4 (Homo sapiens), Q13485 (parent)
chain: B1 chain
partner: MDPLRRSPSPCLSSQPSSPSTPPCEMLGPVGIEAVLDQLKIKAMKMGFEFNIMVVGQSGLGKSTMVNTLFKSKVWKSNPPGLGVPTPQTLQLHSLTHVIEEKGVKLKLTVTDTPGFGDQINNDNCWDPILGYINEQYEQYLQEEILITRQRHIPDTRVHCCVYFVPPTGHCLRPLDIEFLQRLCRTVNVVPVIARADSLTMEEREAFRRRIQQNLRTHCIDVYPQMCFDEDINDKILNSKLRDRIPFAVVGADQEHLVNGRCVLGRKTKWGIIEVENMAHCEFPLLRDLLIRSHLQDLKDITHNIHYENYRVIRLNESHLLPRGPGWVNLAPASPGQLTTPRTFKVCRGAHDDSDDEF
B8: Mothers against decapentaplegic homolog 4 (Homo sapiens), Q13485 (parent)
chain: B1 chain
partner: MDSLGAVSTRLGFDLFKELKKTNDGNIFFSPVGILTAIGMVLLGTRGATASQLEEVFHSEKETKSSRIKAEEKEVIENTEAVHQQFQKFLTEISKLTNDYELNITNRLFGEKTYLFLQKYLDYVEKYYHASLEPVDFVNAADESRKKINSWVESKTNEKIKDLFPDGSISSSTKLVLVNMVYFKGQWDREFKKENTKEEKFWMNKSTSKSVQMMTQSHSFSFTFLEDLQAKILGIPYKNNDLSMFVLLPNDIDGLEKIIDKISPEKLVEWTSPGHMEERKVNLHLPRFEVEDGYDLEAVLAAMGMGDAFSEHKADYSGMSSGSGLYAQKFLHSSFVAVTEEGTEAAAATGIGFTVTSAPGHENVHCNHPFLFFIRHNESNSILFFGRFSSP

Variants of: B1
Details: with rubic_human RUBCN

Variant | effect of a mutation on the interaction
G386D | with no effect

Variants of: B2
Details: with 1433t_human YWHAQ

Variant | effect of a mutation on the interaction
D351H | with no effect

Variants of: B2
Details: with 1433t_human YWHAQ
Remark: another data set of the same source

Variant | effect of a mutation on the interaction
G386D | with no effect

Variants of: B2
Details: with 1433t_human YWHAQ
Remark: another data set of the same source

Variant | effect of a mutation on the interaction
R361H | with no effect

Variants of: B2
Details: with 1433t_human YWHAQ
Remark: another data set of the same source

Variant | effect of a mutation on the interaction
R361C | with no effect

Variants of: B3
Details: with 1433f_human YWHAH

Variant | effect of a mutation on the interaction
R361H | with no effect

Variants of: B3
Details: with 1433f_human YWHAH
Remark: another data set of the same source

Variant | effect of a mutation on the interaction
R361C | with no effect

Variants of: B3
Details: with 1433f_human YWHAH
Remark: another data set of the same source

Variant | effect of a mutation on the interaction
D351H | with no effect

Variants of: B3
Details: with 1433f_human YWHAH
Remark: another data set of the same source

Variant | effect of a mutation on the interaction
G386D | with no effect

Variants of: B4
Details: with ccn6_human CCN6, O95389

Variant | effect of a mutation on the interaction
R361H | with no effect

Variants of: B4
Details: with ccn6_human CCN6, O95389
Remark: another data set of the same source

Variant | effect of a mutation on the interaction
R361C | with no effect

Variants of: B4
Details: with ccn6_human CCN6, O95389
Remark: another data set of the same source

Variant | effect of a mutation on the interaction
G386D | with no effect

Variants of: B4
Details: with ccn6_human CCN6, O95389
Remark: another data set of the same source

Variant | effect of a mutation on the interaction
D351H | with no effect

Variants of: B5
Details: with zn483_human ZNF483, Q8TF39

Variant | effect of a mutation on the interaction
R361H | with no effect

Variants of: B5
Details: with zn483_human ZNF483, Q8TF39
Remark: another data set of the same source

Variant | effect of a mutation on the interaction
R361C | with no effect

Variants of: B6
Details: with shc1_human SHC1, P29353

Variant | effect of a mutation on the interaction
G386D | with no effect

Variants of: B6
Details: with shc1_human SHC1, P29353
Remark: another data set of the same source

Variant | effect of a mutation on the interaction
D351H | with no effect

Variants of: B6
Details: with shc1_human SHC1, P29353
Remark: another data set of the same source

Variant | effect of a mutation on the interaction
R361H | with no effect

Variants of: B6
Details: with shc1_human SHC1, P29353
Remark: another data set of the same source

Variant | effect of a mutation on the interaction
R361C | with no effect

Variants of: B7
Details: with sep12_human SEPTIN12, Q8IYM1

Variant | effect of a mutation on the interaction
R361C | with no effect

Variants of: B8
Details: with spb13_human SERPINB13, Q9UIV8

Variant | effect of a mutation on the interaction
D351H | with no effect

Variants of: B8
Details: with spb13_human SERPINB13, Q9UIV8
Remark: another data set of the same source

Variant | effect of a mutation on the interaction
R361C | with no effect

Variants of: B8
Details: with spb13_human SERPINB13, Q9UIV8
Remark: another data set of the same source

Variant | effect of a mutation on the interaction
R361H | with no effect
